Laboratory results from US20030028904A1 (published 2003).

Target: T1, His-tagged Dock180 (UniProt Q14185 1-1865)
T1 construct: also called His-Dock180; CED-5/Dock180; not shown: His tag
Experiment: co-immunoprecipitation, anti-FLAG IP and anti-Dock180 blot, COS-7 cells (FIG. 20B lane 9)
Source text: COS-7 cells were transfected with the indicated plasmids and the lysates were immunoprecipitated with anti-FLAG antibody and immunoblotted with anti-Dock180 (a mixture of N- and C-terminal antibodies). The same blot was stripped and reprobed with anti-FLAG to determine expression of the FLAG-tagged proteins. Immunoblotting of total lysates indicated the expression of Dock180 in the appropriate lanes. FIG. 20C is a photograph of a blot showing that ELMO1 and ELMO2 interact with Dock180. COS-7 cells were transfected as above with plasmids coding for FLAG-tagged ELMO1, ELMO2, the N-term or C-term versions of ELMO1 along with His-Dock180. After anti-FLAG immunoprecipitation, the coprecipitation of Dock180 was analyzed by immunoblotting. FIG. 20D is a photograph of a blot showing that CED-12 interacts with CED-5, but not Rac in a yeast two-hybrid assay. Interaction between Caenorhabditis elegans CED-12 and CED-5 as well as Rac wt and mutants were analyzed by yeast two-hybrid interaction as described in the Experimental procedures. Growth seen on selective plates is shown. FIG. 20E is a photograph of a blot showing that formation of a trimeric complex between ELMO1, CrkII and Dock180. […]
It was determined whether there might be a physical interaction between ELMO1 and Dock180, Rac or CrkII. […]

B1: FLAG-tagged human CED-6 (other, UniProt Q9UBP9 1-304, looked up)
chain: MNRAFSRKKDKTWMHTPEALSKHFIPYNAKFLGSTEVEQPKGTEVVRDAVRKLKFARHIKKSEGQKIPKVELQISIYGVKILEPKTKEVQHNCQLHRISFCADDKTDKRIFTFICKDSESNKHLCYVFDSEKCAEEITLTIGQAFDLAYRKFLESGGKDVETRKQIAGLQKRIQDLETENMELKNKVQDLENQLRITQVSAPPAGSMTPKSPSTDIFDMIPFSPISHQSSMPTRNGTQPPPVPSRSTEIKRDLFGAEPFDPFNCGAADFPPDIQSKLDEMQEGFKMGLTLEGTVFCLDPLDSRC
notes: not shown: FLAG tag
binding result: no binding
